Where a chain is given by its changes, count along the chain named.

Experiment in all cases: phage selection and phage ELISA on coated receptor ECD
For assay [1], the target named is T1, human leptin receptor (Hu ObR), recombinant extracellular domain (human, UniProt P48357 22-839).
T1 construct: extracellular domain; Recombinant Fc fusion (R&D Systems) or His-tagged (Sino Biologicals)
T1 sequence (looked up): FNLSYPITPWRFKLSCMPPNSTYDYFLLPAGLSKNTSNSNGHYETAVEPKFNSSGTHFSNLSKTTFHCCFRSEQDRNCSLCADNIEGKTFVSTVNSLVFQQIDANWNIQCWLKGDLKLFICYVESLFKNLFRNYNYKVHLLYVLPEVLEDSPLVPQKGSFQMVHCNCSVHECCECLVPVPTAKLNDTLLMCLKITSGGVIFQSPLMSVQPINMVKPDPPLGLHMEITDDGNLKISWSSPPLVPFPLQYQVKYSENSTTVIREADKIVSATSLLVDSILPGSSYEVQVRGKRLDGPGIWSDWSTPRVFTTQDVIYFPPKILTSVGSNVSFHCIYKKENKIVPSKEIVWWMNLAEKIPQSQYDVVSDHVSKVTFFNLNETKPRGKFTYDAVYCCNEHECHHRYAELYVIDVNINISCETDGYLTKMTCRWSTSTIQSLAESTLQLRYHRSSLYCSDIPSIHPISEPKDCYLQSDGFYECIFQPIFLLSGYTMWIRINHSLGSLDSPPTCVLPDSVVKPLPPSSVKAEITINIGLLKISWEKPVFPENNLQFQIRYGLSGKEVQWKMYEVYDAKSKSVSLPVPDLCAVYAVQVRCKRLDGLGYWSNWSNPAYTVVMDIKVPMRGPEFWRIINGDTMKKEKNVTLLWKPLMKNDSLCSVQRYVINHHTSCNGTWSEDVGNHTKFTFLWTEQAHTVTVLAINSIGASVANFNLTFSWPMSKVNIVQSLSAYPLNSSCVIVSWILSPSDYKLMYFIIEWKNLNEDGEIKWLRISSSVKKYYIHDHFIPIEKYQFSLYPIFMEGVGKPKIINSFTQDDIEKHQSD

Assay [2] concerns the target T2, human transferrin receptor (Hu TrfR), recombinant extracellular domain (human, UniProt P02786 89-760).
T2 construct: extracellular domain; Recombinant Fc fusion (R&D Systems) or His-tagged (Sino Biologicals); also called human TfR

Assay [3] deals with T3, human receptor for advanced glycation-end products (Hu RAGE), recombinant extracellular domain (human, UniProt Q15109 23-342).
T3 construct: extracellular domain; Recombinant Fc fusion (R&D Systems) or His-tagged (Sino Biologicals)
T3 sequence (Q15109 23-342): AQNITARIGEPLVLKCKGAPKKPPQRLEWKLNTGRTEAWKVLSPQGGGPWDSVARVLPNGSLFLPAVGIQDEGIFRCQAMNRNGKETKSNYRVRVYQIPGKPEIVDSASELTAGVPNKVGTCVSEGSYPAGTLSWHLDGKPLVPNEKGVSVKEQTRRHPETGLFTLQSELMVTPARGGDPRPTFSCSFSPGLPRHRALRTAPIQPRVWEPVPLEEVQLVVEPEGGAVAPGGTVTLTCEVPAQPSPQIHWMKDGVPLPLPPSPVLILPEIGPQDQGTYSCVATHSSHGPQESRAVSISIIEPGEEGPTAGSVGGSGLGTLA

Assay [4] has as its target T4, mouse transferrin receptor (Mu TrfR), recombinant extracellular domain (mouse, UniProt Q62351 89-763).
T4 construct: extracellular domain; Recombinant Fc fusion (R&D Systems) or His-tagged (Sino Biologicals)

The target in assay [5] is T5, human HER3/ErbB3 (Hu ErbB3), recombinant extracellular domain (human, UniProt P21860 20-643).
T5 construct: extracellular domain; Recombinant Fc fusion (R&D Systems) or His-tagged (Sino Biologicals)

T2 sequence (P02786 89-760): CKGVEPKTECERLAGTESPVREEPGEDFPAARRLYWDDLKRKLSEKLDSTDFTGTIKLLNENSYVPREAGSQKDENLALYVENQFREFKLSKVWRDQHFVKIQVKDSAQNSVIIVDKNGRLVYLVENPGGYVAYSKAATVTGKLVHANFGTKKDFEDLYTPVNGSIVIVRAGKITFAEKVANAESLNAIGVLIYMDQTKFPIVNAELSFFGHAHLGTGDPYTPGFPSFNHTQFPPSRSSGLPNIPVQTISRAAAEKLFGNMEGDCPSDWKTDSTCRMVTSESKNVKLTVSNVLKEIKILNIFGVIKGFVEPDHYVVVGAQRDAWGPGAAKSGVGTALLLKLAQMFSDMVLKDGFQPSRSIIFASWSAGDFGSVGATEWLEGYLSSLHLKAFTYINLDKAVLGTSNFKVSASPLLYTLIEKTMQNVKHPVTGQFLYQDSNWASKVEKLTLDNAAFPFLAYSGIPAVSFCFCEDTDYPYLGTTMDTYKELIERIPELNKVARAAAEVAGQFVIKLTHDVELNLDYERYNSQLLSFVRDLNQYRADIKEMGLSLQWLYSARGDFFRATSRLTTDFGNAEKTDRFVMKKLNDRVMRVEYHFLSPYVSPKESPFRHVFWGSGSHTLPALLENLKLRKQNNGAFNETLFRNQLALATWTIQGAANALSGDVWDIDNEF
T4 sequence (Q62351 89-763): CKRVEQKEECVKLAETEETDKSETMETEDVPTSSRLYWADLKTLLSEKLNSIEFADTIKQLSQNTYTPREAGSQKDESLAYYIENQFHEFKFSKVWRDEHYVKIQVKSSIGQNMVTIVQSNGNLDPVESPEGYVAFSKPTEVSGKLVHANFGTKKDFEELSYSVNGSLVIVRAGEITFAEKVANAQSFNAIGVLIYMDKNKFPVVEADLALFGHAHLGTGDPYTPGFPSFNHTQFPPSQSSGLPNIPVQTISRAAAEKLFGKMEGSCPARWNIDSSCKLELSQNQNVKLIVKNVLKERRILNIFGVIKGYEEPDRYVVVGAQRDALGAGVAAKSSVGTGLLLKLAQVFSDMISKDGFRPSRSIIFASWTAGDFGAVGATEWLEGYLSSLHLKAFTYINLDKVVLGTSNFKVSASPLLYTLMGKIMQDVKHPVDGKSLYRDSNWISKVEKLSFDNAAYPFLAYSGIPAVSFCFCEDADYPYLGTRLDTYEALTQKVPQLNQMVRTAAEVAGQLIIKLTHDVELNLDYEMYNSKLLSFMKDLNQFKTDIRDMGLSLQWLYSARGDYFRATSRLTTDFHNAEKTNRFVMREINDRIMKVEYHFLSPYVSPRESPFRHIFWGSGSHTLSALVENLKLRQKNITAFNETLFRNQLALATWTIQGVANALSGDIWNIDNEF

B1: CYC5 (designed binder)
chain: GGVCWQGMMLFFVGEKCRRDSDCPGACICRGNGYCGSGSD
Regarding B1, the binding result in assay [1] is given as “binds”.

B2: CYC40 (designed binder)
chain: GGVCEYFRWHLDSWGECRRDSDCPGACICRGNGYCGSGSD
B2: the binding result in assay [2] is recorded as “binds”.

B3: CYC44 (designed binder)
chain: B2 chain with E5L, F7E, R8A, D12P, E16Q
Consider B3, for which the binding result in assay [2] was “binds”.

B4: CYC41 (designed binder)
chain: GGVCLVSQWHIESWGQCRRDSDCPGACICRGNGYCGSGSD
Take B4: the binding result in assay [2] is “binds”.

B5: CYC8 (designed binder)
chain: GGVCSDRWDWMFATWLCRRDSDCPGACICRGNGYCGSGSD
In the case of B5, the binding result in assay [1] is “binds”.

B6: CYC14 (designed binder)
chain: GGVCFLWFWYGFSRTLCRRDSDCPGACICRGNGYCGSGSD
With B6, in assay [1], the binding result is “binds”.

B7: CYC3 (designed binder)
chain: GGVCHSQFWPWEWYQFCRRDSDCPGACICRGNGYCGSGSD
As to B7, the binding result in assay [1] is “binds”.

B8: CYC11 (designed binder)
chain: GGVCYVDWPWTLTLWYCRRDSDCPGACICRGNGYCGSGSD
Regarding B8, the binding result in assay [1] is reported as “binds”.

B9: CYC28 (designed binder)
chain: GGVCHVGYWWHIWMGACRRDSDCPGACICRGNGYCGSGSD
Turning to B9, the binding result in assay [3] is recorded as “binds”.

B10: CYC9 (designed binder)
chain: GGVCVQPWYSWFMEQGCRRDSDCPGACICRGNGYCGSGSD
Turning to B10, the binding result in assay [1] was “binds”.

B11: CYC7 (designed binder)
chain: GGVCYDWGWFWPFEQYCRRDSDCPGACICRGNGYCGSGSD
With B11, the binding result in assay [1] is given as “binds”.

B12: CYC18 (designed binder)
chain: GGVCDPRWLAGWGSCRRDSDCPETCICRGNGYCASGYD
As for B12, the binding result in assay [2] is listed as “binds”.

B13: CYC19 (designed binder)
chain: GGVCTVWPFVWWGGVPCRRDSDCPGACICRGNGYCGSGSD
Regarding B13, the binding result in assay [4] is “binds”.

B14: CYC24 (designed binder)
chain: GGVCKALWYMGWGTCRRDSDCPGACICRGNGYCGSGSD
B14: the binding result in assay [2] is reported as “binds”.

B15: CYC25 (designed binder)
chain: B14 chain with A6Q, L7N, Y9L, M10P
B15: the binding result in assay [2] is given as “binds”.

B16: CYC6 (designed binder)
chain: GGVCGWFYWYHKWFGPCRRDSDCPGACICRGNGYCGSGSD
On to B16, for which the binding result in assay [1] is “binds”.

B17: CYC23 (designed binder)
chain: GGVCHNLFVIESILFWCRRDSDCPGACICRGNGYCGSGSD
On to B17, for which the binding result in assay [4] is “binds”.

B18: CYC10 (designed binder)
chain: GGVCPTQTWWFWLPAQCRRDSDCPGACICRGNGYCGSGSD
On to B18, for which the binding result in assay [1] is on record as “binds”.

B19: CYC13 (designed binder)
chain: GGVCPTAMWFDWFTVYCRRDSDCPGACICRGNGYCGSGSD
On to B19, for which, in assay [1], the binding result is “binds”.

B20: CYC16 (designed binder)
chain: GGVCWWDKWVFPISRQCRRDSDCPGACICRGNGYCGSGSD
In the case of B20, the binding result in assay [5] was “binds”.

B21: CYC45 (designed binder)
chain: GGVCQMVSEHWVARVWCRRDSDCPGACICRGNGYCGSGSD
For the molecule B21, the binding result in assay [2] is “binds”.

B22: CYC1 (designed binder)
chain: GGVCPWPKWTYMAQKYCRRDSDCPGACICRGNGYCGSGSD
In the case of B22, the binding result in assay [1] was “binds”.

B23: CYC15 (designed binder)
chain: GGVCRHSYSQIPLWCRRDSDCPGACICRGNGYCGSGSD
Turning to B23, in assay [5], the binding result was “binds”.

B24: CYC4 (designed binder)
chain: GGVCWRWTPKIWVLEEMSSCSDCPGACICRGNGYCGSGSD
Regarding B24, in assay [1], the binding result is “binds”.

B25: CYC20 (designed binder)
chain: GGVCAYVHDWYHHVMYCRRDSDCPGACICRGNGYCGSGSD
As to B25, the binding result in assay [4] was “binds”.

B26: CYC21 (designed binder)
chain: GGVCMHNSASHNIQMQCRRDSDCPGACICRGNGYCGSGSD
Consider B26, for which the binding result in assay [4] is “binds”.

B27: CYC22 (designed binder)
chain: GGVCQTVFPMWPWYQLCRRDSDCPGACICRGNGYCGSGSD
Take B27: in assay [4], the binding result is listed as “binds”.

B28: CYC12 (designed binder)
chain: GGVCEWSDWFPYEFLFCRRDSDCPGACICRGNGYCGSGSD
With B28, in assay [1], the binding result is given as “binds”.

B29: CYC43 (designed binder)
chain: GGVCRYQEWHMESWGSCRRDSDCPGACICRGNGYCGSGSD
With B29, the binding result in assay [2] was “binds”.

B30: CYC42 (designed binder)
chain: GGVCQEERWHMHSWGPCRRDSDCPGACICRGNGYCGSGSD
Regarding B30, the binding result in assay [2] was “binds”.

B31: CYC2 (designed binder)
chain: GGVCQSFFWWHSWFGVCRRDSDCPGACICRGNGYCGSGSD
As for B31, in assay [1], the binding result is listed as “binds”.

B32: CYC29 (designed binder)
chain: B31 chain with Q5V, F7N, W10F, H11M, S12H
On to B32, for which the binding result in assay [3] is on record as “binds”.

The record behind these values is patent US20250340604A1 (ENKEFALOS BIOSCIENCES, published 2025).
